Data as given in patent US20030175278A1.

How the values were obtained:
Test in all cases: Y2H β-galactosidase liquid culture assay (ONPG)
[1] = molecular target: PS1-COOH terminus Y2H bait (human)
[2] = molecular target: PS1-Loop Y2H bait (human)
[3] = molecular target: PS2-Loop Y2H bait (human) (UniProt P49810)
Sequence of PS2-Loop Y2H bait (human) (P49810 271-361): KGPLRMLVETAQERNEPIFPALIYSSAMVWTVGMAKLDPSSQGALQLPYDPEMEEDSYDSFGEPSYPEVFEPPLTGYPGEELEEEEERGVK

Sequence of PS1-Loop Y2H bait (human) (P79802 273-380): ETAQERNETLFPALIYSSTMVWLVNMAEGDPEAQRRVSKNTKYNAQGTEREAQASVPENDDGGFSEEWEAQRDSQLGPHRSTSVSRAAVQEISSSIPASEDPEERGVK

For “near full-length ubiquilin-prey clone (FIG. 2 III, construct H without GST), M37-S595 (from UniProt Q9UMX0 37-587)”, the fold β-galactosidase activity compared with negative-control baits [1] was > 12 fold, the interaction strength relative to the PS2-COOH-terminal bait [2] was 2 fold and the interaction strength relative to the PS2-COOH-terminal bait [3] was 2 fold.
